Results taken from paper PMC6249844 (Molecular Biology of the Cell, 2018).

B1: Snx3-mGFP (His-SUMO-Snx3-mGFP) (natural protein)
chain: MPREFKSFGSTEKSLLSKGHGEPSYSEIYAEPENFLEIEVHNPKTHIPNGMDSKGMFTDYEIICRTNLPSFHKRVSKVRRRYSDFEFFRKCLIKEISMLNHPKVMVPHLPGKILLSNRFSNEVIEERRQGLNTWMQSVAGHPLLQSGSKVLVRFIEAEKFVG
B2: GFP-tagged SNX-BAR complex (Vps5-Vps17 heterodimer with Vps17-GFP) (complex)
chain 1: MDYEDNLEAPVWDELNHEGDKTQSLVSNSIESIGQISTNEERKDNELLETTASFADKIDLDSAPEWKDPGLSVAGNPQLEEHDNSKADDLINSLAPEQDPIADLKNSTTQFIATRESGGALFTGNANSPLVFDDTIYDANTSPNTSKSISGRRSGKPRILFDSARAQRNSKRNHSLKAKRTTASDDTIKTPFTDPLKKAEKENEFVEEPLDDRNERRENNEGKFTASVEKNILEQVDRPLYNLPQTGANISSPAEVEENSEKFGKTKIGSKVPPTEKAVAFKVEVKDPVKVGELTSIHVEYTVISESSLLELKYAQVSRRYRDFRWLYRQLQNNHWGKVIPPPPEKQSVGSFKENFIENRRFQMESMLKKICQDPVLQKDKDFLLFLTSDDFSSESKKRAFLTGSGAINDSNDLSEVRISEIQLLGAEDAAEVLKNGGIDAESHKGFMSISFSSLPKYNEADEFFIEKKQKIDELEDNLKKLSKSLEMVDTSRNTLAASTEEFSSMVETLASLNVSEPNSELLNNFADVHKSIKSSLERSSLQETLTMGVMLDDYIRSLASVKAIFNQRSKLGYFLVVIENDMNKKHSQLGKLGQNIHSEKFREMRKEFQTLERRYNLTKKQWQAVGDKIKDEFQGFSTDKIREFRNGMEISLEAAIESQKECIELWETFYQTNL
chain 2: MTSAVPYDPYDDLDNNPFAEPQEEDSEPAATTTDGSSSMSEERVGTEQTAASVQDNGTANNIQNGLGEEGNATRSKTSNEHNENQQPSQPSERVILPERSDEKKKYTLLAKVTGLERFGSATGKKENPTIIFDCSTNLPTFRKQQYKNVKKSYEEFHQLFKYLNVAIQESFVPTLPSAYTTFGINSEEDRMKVTRNFQLWFNRLSQDPLIIRNEEVAFFIESDFNTYTPINKSKSLASGLKRKTLKQLAPPYDEITELAEFRPLVKSIYVVSQSLQEKLLRVSRNRKMMVQEENAFGQDFVNLDEHNKLYRRYGKILTAVGDIDSIIATMDMATLYDGLEWIVRDAYAVKEALTNRHFIMRNLVQAQQNSKAKQEQARRFRSRRDINPMKIDEALRQLKAAAKNEQVLTLKLQRITSNMIIERKQWISWYEEWIRSSIKEFTLRKIEYERKKLTLLERVRSDIRKADENGGLSRLGRHAVSNNNSDTSQTLKGDSWTGESNRKSQIPINKIAHTEFDDELFTEDDGYNSQDSDTTSLNARHAASLLGMSTK
B3: SNX-BAR complex without GFP tag (Vps5-Vps17 heterodimer) (complex)
chain 1: B2 chain 1
chain 2: B2 chain 2

Target: RFP-tagged cargo selection complex (Vps35, Vps26, Vps29-RFP) (S. cerevisiae, UniProt P34110;P40335;P38759)
Assay: recruitment to giant unilamellar vesicles

Chain of RFP-tagged cargo selection complex (Vps35, Vps26, Vps29-RFP) (P34110 whole entry, chain 1 of 3): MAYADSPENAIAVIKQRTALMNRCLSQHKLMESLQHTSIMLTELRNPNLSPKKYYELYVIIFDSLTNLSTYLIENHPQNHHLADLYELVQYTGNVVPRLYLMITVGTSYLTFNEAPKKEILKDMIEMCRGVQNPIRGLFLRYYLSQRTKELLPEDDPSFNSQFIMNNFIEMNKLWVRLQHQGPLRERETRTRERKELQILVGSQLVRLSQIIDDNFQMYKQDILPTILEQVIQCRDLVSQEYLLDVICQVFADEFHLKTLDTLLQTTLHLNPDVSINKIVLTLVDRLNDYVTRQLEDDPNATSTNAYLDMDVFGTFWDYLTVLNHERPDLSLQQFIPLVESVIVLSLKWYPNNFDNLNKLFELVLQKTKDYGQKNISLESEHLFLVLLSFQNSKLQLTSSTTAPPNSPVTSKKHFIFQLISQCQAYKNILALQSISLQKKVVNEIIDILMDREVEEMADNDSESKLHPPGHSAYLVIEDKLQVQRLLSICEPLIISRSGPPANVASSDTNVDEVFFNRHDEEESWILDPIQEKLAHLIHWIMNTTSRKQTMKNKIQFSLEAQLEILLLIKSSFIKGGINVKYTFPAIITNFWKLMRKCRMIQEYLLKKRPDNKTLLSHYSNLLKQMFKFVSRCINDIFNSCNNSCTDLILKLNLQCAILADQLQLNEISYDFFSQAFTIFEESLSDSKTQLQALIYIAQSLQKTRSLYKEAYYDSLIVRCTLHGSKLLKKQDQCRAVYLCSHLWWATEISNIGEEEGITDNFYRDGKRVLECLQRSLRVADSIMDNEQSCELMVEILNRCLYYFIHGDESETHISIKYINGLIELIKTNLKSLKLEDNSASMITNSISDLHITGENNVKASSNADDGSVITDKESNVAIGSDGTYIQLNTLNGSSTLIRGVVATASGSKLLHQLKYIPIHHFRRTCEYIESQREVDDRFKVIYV
Chain of RFP-tagged cargo selection complex (Vps35, Vps26, Vps29-RFP) (P40335 whole entry, chain 2 of 3): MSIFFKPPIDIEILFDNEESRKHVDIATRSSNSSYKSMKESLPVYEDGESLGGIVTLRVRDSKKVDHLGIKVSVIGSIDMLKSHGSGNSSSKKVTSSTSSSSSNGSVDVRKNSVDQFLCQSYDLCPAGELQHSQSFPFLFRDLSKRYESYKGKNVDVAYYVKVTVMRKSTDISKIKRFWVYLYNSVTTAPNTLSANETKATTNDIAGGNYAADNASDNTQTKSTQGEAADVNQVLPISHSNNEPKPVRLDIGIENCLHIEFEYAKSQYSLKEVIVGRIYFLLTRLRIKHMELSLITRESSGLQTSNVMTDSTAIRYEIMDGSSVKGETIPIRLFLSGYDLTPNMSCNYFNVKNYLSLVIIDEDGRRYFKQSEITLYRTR
Chain of RFP-tagged cargo selection complex (Vps35, Vps26, Vps29-RFP) (P38759 whole entry, chain 3 of 3): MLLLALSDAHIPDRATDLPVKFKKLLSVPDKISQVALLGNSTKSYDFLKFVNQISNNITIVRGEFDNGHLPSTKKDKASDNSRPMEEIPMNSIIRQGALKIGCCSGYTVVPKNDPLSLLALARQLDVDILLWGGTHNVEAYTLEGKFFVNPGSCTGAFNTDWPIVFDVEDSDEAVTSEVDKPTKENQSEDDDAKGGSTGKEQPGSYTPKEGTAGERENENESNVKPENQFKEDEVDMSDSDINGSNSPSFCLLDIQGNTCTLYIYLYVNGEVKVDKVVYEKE

| Binder | binding result |
| --- | --- |
| B1 | binds |
| B2 | binds |
| B3 | binds |
